This note sets out measurements from patent publication US20230002466A1 (ELPIS BIOPHARMACEUTICALS, published 2023).

Assay [1] concerns the target T1, human IL2Rβ (human, UniProt P14784 27-239).
T1 construct: also called IL2β; CD122
T1 sequence (looked up): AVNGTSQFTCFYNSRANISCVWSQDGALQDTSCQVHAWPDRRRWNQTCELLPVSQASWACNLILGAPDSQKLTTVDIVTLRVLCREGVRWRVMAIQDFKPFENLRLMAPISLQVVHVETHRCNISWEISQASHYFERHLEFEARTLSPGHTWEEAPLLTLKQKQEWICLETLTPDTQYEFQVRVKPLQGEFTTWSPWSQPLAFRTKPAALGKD
Put plainly: SPR, single concentration. (Surface plasmon resonance follows binding to a sensor surface in real time, without labels.)

The target of assay [2] is T2, human IL2Rβ Fc fusion protein (human, UniProt P14784 27-239).
T2 construct: also called Recombinant Fc-tagged human IL2Rβ; not shown: Fc
T2 sequence (looked up): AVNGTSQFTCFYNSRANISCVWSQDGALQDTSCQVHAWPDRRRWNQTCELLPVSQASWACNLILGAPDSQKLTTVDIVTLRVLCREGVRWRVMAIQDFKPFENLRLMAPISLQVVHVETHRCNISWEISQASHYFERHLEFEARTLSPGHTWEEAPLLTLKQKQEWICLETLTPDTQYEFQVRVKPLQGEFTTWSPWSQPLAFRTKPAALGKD
Put plainly: ELISA, Fc-tagged receptor coated, anti-HisTag-HRP. Summed up:
(§1)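 IL2 mutants, diluted from 1000 nM to 0 nM, were incubated 2 h at RT on plates coated overnight at 4 °C with Fc-tagged human IL2Rα (or IL2Rβ). Bound protein detected with anti-HisTag-HRP (1:5000, 1 h) and TMB. Absorbance read at 450 nm after acid stop.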

The target in assay [3] is T3, human IL2Rα (human, UniProt P01589 22-213, limits assumed).
T3 construct: also called IL2α; CD25
T3 sequence (looked up): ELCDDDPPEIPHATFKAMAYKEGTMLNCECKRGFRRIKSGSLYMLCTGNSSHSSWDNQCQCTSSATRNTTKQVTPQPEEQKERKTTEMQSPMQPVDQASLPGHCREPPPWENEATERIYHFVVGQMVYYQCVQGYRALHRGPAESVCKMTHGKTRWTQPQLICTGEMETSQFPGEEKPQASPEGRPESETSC
Put plainly: SPR (Biacore T200), human IL2Rα, single concentration of the IL2 protein, not printed (Example 13).

For assay [4], the target named is T4, human IL2Rα Fc fusion protein (human, UniProt P01589 22-213, limits assumed).
T4 construct: also called Recombinant Fc-tagged human IL2Rα; not shown: Fc
T4 sequence (looked up): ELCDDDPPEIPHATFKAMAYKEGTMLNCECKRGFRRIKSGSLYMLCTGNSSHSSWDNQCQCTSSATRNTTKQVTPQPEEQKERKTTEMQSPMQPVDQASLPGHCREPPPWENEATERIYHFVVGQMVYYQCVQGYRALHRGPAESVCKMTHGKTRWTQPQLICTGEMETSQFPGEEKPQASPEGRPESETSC
Put plainly: ELISA, single point, Fc-tagged human IL2Rα coated, anti-His-HRP; concentration not printed (Example 14). How it is done:
Recombinant Fc-tagged human IL2Rα and IL2Rβ were added in 25 uL of 1×PBS to wells of 384-well plate and incubated overnight at 4° C. to coat the plates. Plates were washed three times with 0.05% Tween20/1×PBS. Plates were blocked with 100 uL of SuperBlock for 1 hr at RT and then washed 3 times with 0.05% Tween20/1×PBS. IL2 mutants were diluted in 0.05% Tween 20/1×PBS from 1000 nM to 0 nM and added to plates for 2 hrs at room temperature. Plates were then washed 6 times with 0.05% Tween20/1×PBS. Anti-HisTag-HRP was diluted 1:5000 in 0.05% Tween20/1×PBS and added to plates for 1 hr at RT. Plates were then washed 6 times with 0.05% Tween 20/1×PBS, and TMB was added to develop blue color. Reactions were stopped with 2N […] and light absorbance at 450 nm was read on a BioTek plate reader.
Background: ELISA stands for enzyme-linked immunosorbent assay.

Assay [5] addresses T4, human IL2Rα Fc fusion protein. Put plainly: ELISA, receptor-Fc coated, anti-Flag HRP. The method, boiled down: (§2)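 Plates coated overnight at 4 C with IL2Rα or IL2Rβ Fc fusion at 2 ug/mL, then blocked. Flag-tagged IL2 mutant dilutions were added in duplicate, and binding was detected with anti-Flag HRP (1:5000) and TMB for 5 min. EC50 was fitted from OD450.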
In assay [6] the target is T2, human IL2Rβ Fc fusion protein. Put plainly: ELISA, receptor-Fc coated, anti-Flag HRP. Summed up:
as §2

Assay [7] concerns the target T4, human IL2Rα Fc fusion protein. Put plainly: ELISA, Fc-tagged receptor coated, anti-HisTag-HRP. The method, boiled down: as §1
The target in assay [8] is T1, human IL2Rβ. Put plainly: SPR, IL2Rβ captured on Protein A chip, steady state affinity fitting. How it is done: The assay was run with Biacore T200 control software version 2.0. For each cycle, 1 ug/mL of human IL2Rβ was captured for 60 seconds at flow rate of 10 uL/min on flow cell 2 in 1×HBSP buffer on Protein A sensor chip. 100 nM of HIS and Flag tag purified each IL2 mutant was 2-fold serial diluted and injected onto both reference flow cell 1 and IL2Rβ captured flow cell 2 for 150 seconds at flow rate of 30 uL/min followed by washing for 300 seconds. The flow cells were then regenerated with Glycine pH2 for 60 seconds at a flow rate of 30 uL/min. The assay was set up with 8 serial diluted concentration points in 96-well format. The kinetics data was analyzed with Biacore T200 evaluation software 3.0. The specific binding response unit was derived from subtraction of binding to reference flow cell 1 from target flow cell 2 (FIGS. 16A-16F, Table 10).

Assay [9] addresses T1, human IL2Rβ. Put plainly: SPR, IL2Rβ captured on Protein A chip. How it is done:
Kinetic analysis of the receptor binding activities of IL2Rβ agonist with IL2Rα reduced activity mutations have been assessed by SPR technology with Biacore T200. The assay was run with Biacore T200 control software version 2.0. For each cycle, 1 ug/mL of human IL2Rβ was captured for 60 seconds at flow rate of 10 ul/min on flow cell 2 in 1×HBSP buffer on Protein A sensor chip. 100 nM of HIS and Flag tag purified each IL2 mutant was 2 fold serial diluted and injected onto both reference flow cell 1 and IL2Rβ captured flow cell 2 for 150 seconds at flow rate of 30 ul/mins followed by wash for 300 seconds. The flow cells were then regenerated with Glycine pH2 for 60 seconds at flow rate of 30 ul/mins. The assay was set up with 8 serial diluted concentration points in 96 well format. The kinetics data was analyzed with Biacore T200 evaluation software 3.0. The specific binding response unit was derived from subtraction of binding to reference flow cell 1 from target flow cell 2.

Assay [10] deals with T3, human IL2Rα. Put plainly: SPR (Biacore T200), human IL2Rα, IL2 mutant in two-fold dilutions from 100 nM (Example 13).
Assay [11] addresses T3, human IL2Rα. The description is as above. The source holds these as a separate data set.
The target in assay [12] is T1, human IL2Rβ. Put plainly: SPR, multi-concentration.
Assay [13] deals with T3, human IL2Rα. Put plainly: SPR (Biacore T200), human IL2Rα, one trace per clone drawn, concentrations not printed (Example 13).
Assay [14] concerns the target T3, human IL2Rα. Put plainly: SPR (Biacore T200), human IL2Rα, IL2 mutant in two-fold dilutions from 100 nM (Example 13). The source holds these as a separate data set.
Assay [15] deals with T3, human IL2Rα. The description is as above. The source holds these as a separate data set.

B1: EP341 (ligand)
chain: APTSSSTKKTQLQLEHLLLDLQMILNGINNYKNPKLTDMLTFKFSMPKKATELKHLQCLEEELKPLEEVLNLAQSKNFHLTARDAIDNINVIVQELKGSETTFMCEYADETATIVEFLNRWITFSQSIISTLTGSHHHHHH
As a reminder, the Kd is the equilibrium constant for the complex coming apart. The term EC50 denotes the concentration needed to bring the measured effect to its halfway point. High values mean lower potency in that assay, low ones higher potency in that assay. Molecule B1 registered a Kd in [1] of 0.00254 µM. Also, in assay [2], the response was half-maximal at 0.0641 µM (EC50). The binding result in [3] is reported as “no binding (tested: single concentration, not printed)”; in [4], “no binding (tested: not printed)”.

B2: EP252 (ligand)
chain: APTSSSTKKTQLQLEHLLLDLQMILNGINNYKNPKLTRMLTFKFYMPKKATELKHLQCLEEELKPLEEVLNLAQSKNFHLTPRDAIDNIRVIVQELKGSETTFMCEYADETATIVEFLNRWITFCQSIISTLT
notes: not shown: His and Flag tags
Regarding B2, the EC50 in [5] was 0.013 µM; in assay [6] it was 0.0022 µM; in [7], 0.0138 µM; in assay [2], 0.0245 µM. Besides, the equilibrium dissociation constant (Kd) in assay [8] came to 0.00911 µM.

B3: EP407 (ligand)
chain: APTSSSTKKTQLQLEHLLLDLQMILNGINNYKNPKLTDMLTFKFSMPKKATELKHLQCLEEELKPLEEVLNLAQSKNFHLTARDAVDNMRVIIQELKGSETTFMCEYADETATIVEFLNRWITFCQSIISTLT
notes: not shown: His and Flag tags
The koff is the first-order rate constant of dissociation. Low readings indicate slow dissociation, high ones fast dissociation. In general, kon refers to a measure of how fast the partners come together. In [9], B3 displayed a Kd of 0.000611 µM, an off-rate (koff) of 0.00509 s⁻¹ and an association rate constant (kon) of 8.34e+06 M⁻¹ s⁻¹. In addition, the binding result in assay [10] is recorded as “no binding (tested: 100 nM)”.

B4: EP253 (ligand)
chain: APTSSSTKKTQLQLEHLLLDLQMILNGINNYKNPKLTRMLTFKFYMPKKATELKHLQCLEEELKPLEEVLNLAQSKNFHLTPRDAIDNIRVIILELKGSETTFMCEYADETATIVEFLNRWITFCQSIISTLT
notes: not shown: His and Flag tags
In the case of B4, the concentration for a half-maximal effect (EC50) in assay [5] was found to be 0.0485 µM; in assay [6] it was 0.0048 µM; in [7], 0.0089 µM; in assay [2], 0.0528 µM. Moreover, the Kd in assay [8] is 0.0295 µM.

B5: EP401 (ligand)
chain: APTSSSTKKTQLQLEHLLLDLQMILNGINNYKNPSLTRMLTGKFYMPKKATELKHLQCLEEELKPLEEVLNLAQSKNFHLTARDAVDNMRVIIQELKGSETTFMCEYADETATIVEFLNRWITFCQSIISTLT
notes: not shown: His and Flag tags
In assay [9], B5 registered a Kd of 0.000855 µM, a dissociation rate constant (koff) of 0.00616 s⁻¹ and an on-rate (kon) of 7.21e+06 M⁻¹ s⁻¹. Moreover, in [11], the binding result is “no binding (tested: 100 nM)”.

B6: EP338 (ligand)
chain: APTSSSTKKTQLQLEHLLLDLQMILNGINNYKNPLLTDMLTRKFYMPKKATELKHLQCLEEELKPLEEVLNLAQSKNFHLTARDAISNINVIIQELKGSETTFMCEYADETATIVEFLNRWITFCQSIISTLT
notes: not shown: His and Flag tags
Molecule B6 yielded a Kd in assay [12] of 0.0383 µM. In assay [2], this molecule yielded a concentration for a half-maximal effect (EC50) of 0.105 µM. The binding result in assay [13] and in assay [4] was “no binding (tested: not printed)” throughout.

B7: EP402 (ligand)
chain: APTSSSTKKTQLQLEHLLLDLQMILNGINNYKNPSLTRMLTGKFYMPKKATELKHLQCLEEELKPLEEVLNLAQSKNFHLGVTDSISNAIVLARELKGSETTFMCEYADETATIVEFLNRWITFCQSIISTLT
notes: not shown: His and Flag tags
In assay [9], B7 showed an equilibrium dissociation constant (Kd) of 0.000108 µM, a koff of 0.000397 s⁻¹ and a kon of 3.68e+06 M⁻¹ s⁻¹. The binding result in assay [14] was “no binding (tested: 100 nM)”.

B8: EP339 (ligand)
chain: APTSSSTKKTQLQLEHLLLDLQMILNGINNYKNPLLTDMLTRKFYMPKKATELKHLQCLEEELKPLEEVLNLAQSKNFHLTPRDAIDNIRVIVQELKGSETTFMCEYADETATIVEFLNRWITFCQSIISTLT
notes: not shown: His and Flag tags
On to B8, for which the Kd in assay [12] stood at 0.0359 µM. Also, the EC50 in assay [2] was found to be 0.0963 µM. The binding result in [13] and in assay [4] was “no binding (tested: not printed)” in each case.

B9: EP408 (ligand)
chain: APTSSSTKKTQLQLEHLLLDLQMILNGINNYKNPKLTDMLTFKFSMPKKATELKHLQCLEEELKPLEEVLNLAQSKNFHLGVTDSISNAIVLARELKGSETTFMCEYADETATIVEFLNRWITFCQSIISTLT
notes: not shown: His and Flag tags
Turning to B9, in assay [9], the affinity, expressed as Kd, was 0.000233 µM; the koff is 0.000598 s⁻¹; the kon was 2.56e+06 M⁻¹ s⁻¹. The binding result in assay [15] is on record as “no binding (tested: 100 nM)”.
